Laboratory results from article PMC3695512, “Recognition of two distinct elements in the RNA substrate by the RNA-binding domain of the T. thermophilus DEAD box helicase Hera”.
Numbering of substitutions follows the chain as printed.

Key:
Hera_RBD K463A = molecular target: T1, Hera_RBD K463A (Thermus thermophilus, UniProt O07897 424-510, K463A); experiment: fluorescence anisotropy; 5 mM Mg2+; text also says abolishes binding; Anisotropy: 50 mM Tris/HCl pH 7.5, 150 mM NaCl, 5 mM MgCl2 (Fig 2), 25 C, 50 nM RNA; EMSA: same Tris/NaCl, 12% glycerol, 25 C; NMR: 25 mM Bis-Tris/HCl pH 6.0, 50 mM NaCl, 10% D2O, 37 C; details: protein: recombinant; label: 5'-fluorescein; hairpin with 5' single strand
T1 sequence: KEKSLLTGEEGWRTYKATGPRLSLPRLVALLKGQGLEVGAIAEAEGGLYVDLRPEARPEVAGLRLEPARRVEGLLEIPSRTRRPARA

Hera_RBD A452C = molecular target: T2, Hera_RBD A452C (Thermus thermophilus, UniProt O07897 424-510, A452C); experiment: fluorescence anisotropy; 5 mM Mg2+; Anisotropy: 50 mM Tris/HCl pH 7.5, 150 mM NaCl, 5 mM MgCl2 (Fig 2), 25 C, 50 nM RNA; EMSA: same Tris/NaCl, 12% glycerol, 25 C; NMR: 25 mM Bis-Tris/HCl pH 6.0, 50 mM NaCl, 10% D2O, 37 C; details: protein: recombinant; label: 5'-fluorescein; hairpin with 5' single strand
T2 sequence: T1 sequence with A29C, A40K

Hera_208-419 (RecA_C_DD) = molecular target: T3, Hera_208-419 (RecA_C_DD) (Thermus thermophilus, UniProt O07897 208-419); experiment: fluorescence anisotropy; 5 mM Mg2+; compared with full-length Hera; Anisotropy: 50 mM Tris/HCl pH 7.5, 150 mM NaCl, 5 mM MgCl2 (Fig 2), 25 C, 50 nM RNA; EMSA: same Tris/NaCl, 12% glycerol, 25 C; NMR: 25 mM Bis-Tris/HCl pH 6.0, 50 mM NaCl, 10% D2O, 37 C; details: protein: recombinant; chain copies: 2; label: 5'-fluorescein; hairpin with 5' single strand
T3 sequence: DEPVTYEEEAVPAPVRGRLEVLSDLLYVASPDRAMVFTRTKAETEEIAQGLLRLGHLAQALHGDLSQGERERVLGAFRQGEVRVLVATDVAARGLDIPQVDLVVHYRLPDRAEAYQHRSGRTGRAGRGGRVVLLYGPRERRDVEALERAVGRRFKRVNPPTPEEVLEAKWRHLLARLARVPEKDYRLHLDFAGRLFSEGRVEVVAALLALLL

Hera_K463A = molecular target: T4, Hera_K463A (Thermus thermophilus, UniProt O07897 1-510, K463A); experiment: fluorescence anisotropy; 5 mM Mg2+; Anisotropy: 50 mM Tris/HCl pH 7.5, 150 mM NaCl, 5 mM MgCl2 (Fig 2), 25 C, 50 nM RNA; EMSA: same Tris/NaCl, 12% glycerol, 25 C; NMR: 25 mM Bis-Tris/HCl pH 6.0, 50 mM NaCl, 10% D2O, 37 C; details: protein: recombinant; chain copies: 2; label: 5'-fluorescein; hairpin with 5' single strand
T4 sequence: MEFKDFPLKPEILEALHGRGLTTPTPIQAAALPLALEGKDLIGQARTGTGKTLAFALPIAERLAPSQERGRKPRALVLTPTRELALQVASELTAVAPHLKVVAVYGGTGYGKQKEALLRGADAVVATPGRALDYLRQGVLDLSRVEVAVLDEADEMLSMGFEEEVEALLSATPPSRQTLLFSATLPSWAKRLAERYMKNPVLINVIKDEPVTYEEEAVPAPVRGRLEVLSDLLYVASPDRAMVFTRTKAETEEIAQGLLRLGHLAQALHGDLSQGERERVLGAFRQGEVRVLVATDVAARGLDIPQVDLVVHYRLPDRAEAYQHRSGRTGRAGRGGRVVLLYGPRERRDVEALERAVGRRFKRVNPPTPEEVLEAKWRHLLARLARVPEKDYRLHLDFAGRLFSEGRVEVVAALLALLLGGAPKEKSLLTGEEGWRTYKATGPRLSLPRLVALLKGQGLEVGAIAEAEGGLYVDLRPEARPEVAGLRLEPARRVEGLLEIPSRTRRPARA

Hera_1-491 = molecular target: T5, Hera_1-491 (Thermus thermophilus, UniProt O07897 1-491, del492-510); experiment: as above; details: protein: recombinant; chain copies: 2; label: 5'-fluorescein; hairpin with 5' single strand
T5 sequence: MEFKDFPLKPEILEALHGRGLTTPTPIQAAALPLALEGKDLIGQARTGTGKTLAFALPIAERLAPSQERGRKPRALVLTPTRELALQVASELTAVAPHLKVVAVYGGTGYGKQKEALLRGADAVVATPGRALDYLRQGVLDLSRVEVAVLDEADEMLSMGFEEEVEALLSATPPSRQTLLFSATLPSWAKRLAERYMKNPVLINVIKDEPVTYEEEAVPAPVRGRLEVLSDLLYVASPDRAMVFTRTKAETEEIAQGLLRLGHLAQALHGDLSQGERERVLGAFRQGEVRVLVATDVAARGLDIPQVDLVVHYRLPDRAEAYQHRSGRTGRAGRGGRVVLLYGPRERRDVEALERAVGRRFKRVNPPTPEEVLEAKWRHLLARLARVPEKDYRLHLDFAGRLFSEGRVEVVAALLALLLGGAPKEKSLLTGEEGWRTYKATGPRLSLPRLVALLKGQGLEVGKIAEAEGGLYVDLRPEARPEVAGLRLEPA

Hera_RBD_dC-tail = molecular target: T6, Hera_RBD_dC-tail (Thermus thermophilus, UniProt O07897 424-491, del492-510); experiment: as above; details: protein: recombinant; label: 5'-fluorescein; hairpin with 5' single strand
T6 sequence: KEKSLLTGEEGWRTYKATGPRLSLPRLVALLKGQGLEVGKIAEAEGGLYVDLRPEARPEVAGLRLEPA

Binder: GCAGGUCCCAAGGGUUGGGCUGUUCGCCCAUU (structured_RNA) [32mer]
- binding signal (Hera_RBD K463A): > 25 fold Kd increase
- binding signal (Hera_RBD A452C): ~10 fold Kd increase
- binding signal (Hera_208-419 (RecA_C_DD)): ~70 fold Kd increase
- Kd (Hera_K463A): 1 ± 0.17 µM
- Kd (Hera_1-491): 1.1 ± 0.13 µM
- Kd (Hera_RBD_dC-tail): 13 µM
